US20260242478A1 (published 2026)
Where no end group is shown, it is not given here.

Experiments:
PSMA Fab [1] = biological target: T1, PSMA Fab; assay: phage ELISA; biotinylated PSMA Fab on neutravidin plate, pre-incubated with PSMA antigen as competitor; anti-M13-HRP
T1 construct: Used biotinylated and captured on neutravidin plates in the phage ELISA; also called Anti-PSMA Fab; 006 PSMA Fab
Experimental: (§1) Clonal phage were harvested as crude supernatants and screened via standard ELISAs. […] Prior to the addition of clonal phage. wells were incubated with blocking buffer and PSMA antigen or blocking buffer alone. Without washing or aspirating, clonal phage supernatants were then added to the wells and incubated for a short time. Wells were then washed followed by detection of bound phage using a horse radish conjugated anti-M13 antibody.

PSMA Fab [2] = biological target: T1, PSMA Fab; assay: phage ELISA; biotinylated PSMA Fab on neutravidin plate, blocking buffer alone; bound phage detected with anti-M13-HRP
Experimental: as §1

PSMA Fab [3] = biological target: T2, PSMA Fab; assay: phage ELISA; biotinylated PSMA Fab on neutravidin plate, blocking buffer alone, anti-M13 HRP detection
T2 construct: also called Anti-PSMA Fab; 006 PSMA Fab
Experimental: as §1

PSMA Fab [4] = biological target: T2, PSMA Fab; assay: phage ELISA; biotinylated PSMA Fab on neutravidin plate, pre-incubated with PSMA antigen as competitor, anti-M13 HRP detection
Experimental: as §1

006 PSMA Fab [5] = biological target: T3, 006 PSMA Fab; assay: clonal phage ELISA on captured PSMA Fab pre-incubated with PSMA antigen as competitor, anti-M13 HRP detection;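 also: crude clonal phage supernatants tested by ELISA, wells first treated with blocking buffer plus PSMA antigen, bound phage read out via HRP-linked anti-M13 antibody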
T3 construct: also called Anti-PSMA Fab
Experimental: as §1

006 PSMA Fab [6] = biological target: T3, 006 PSMA Fab; assay: clonal phage ELISA on biotinylated PSMA Fab captured on neutravidin plates, anti-M13 HRP detection;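 also: crude clonal phage supernatants tested, before phage were added, wells were pretreated with PSMA antigen in blocking buffer or with blocking buffer only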
Experimental: as §1

006 PSMA Fab [7] = biological target: T4, 006 PSMA Fab; assay: clonal phage ELISA on biotinylated anti-PSMA Fab captured on neutravidin, anti-M13 HRP detection
T4 construct: also called Anti-PSMA Fab
Experimental: as §1

006 PSMA Fab [8] = biological target: T4, 006 PSMA Fab; assay: clonal phage ELISA on captured anti-PSMA Fab; competitor PSMA antigen
Experimental: as §1

Binder	Phage binding ELISA signal, Anti-PSMA Fab (PSMA Fab [3])	Phage binding ELISA signal, Anti-PSMA Fab in presence of PSMA (PSMA Fab [4])	phage binding ELISA signal (006 PSMA Fab [7])	phage binding ELISA signal with PSMA antigen present (006 PSMA Fab [8])	other results
TGMACVPWWMCEGF (also called Peptide-180 library clone) [Phage-3732]	–	–	–	–	Phage binding ELISA signal, Anti-PSMA Fab in presence of PSMA antigen (PSMA Fab [1]): 0.0812; Phage binding ELISA signal, Anti-PSMA Fab (PSMA Fab [2]): 1.4
HSVHCVPMWMCTGF (also called Peptide-180 library clone) [Phage-3738]	–	–	–	–	Phage binding ELISA signal, Anti-PSMA Fab in presence of PSMA antigen (PSMA Fab [1]): 0.0781; Phage binding ELISA signal, Anti-PSMA Fab (PSMA Fab [2]): 1.39
LEKVCKPMWMCTGF [Phage-3448]	1.75	0.0949	–	–	–
FTAQCVPLWMCLGF (also called Peptide-180 library clone) [Phage-3736]	–	–	–	–	Phage binding ELISA signal, Anti-PSMA Fab in presence of PSMA antigen (PSMA Fab [1]): 0.0789; Phage binding ELISA signal, Anti-PSMA Fab (PSMA Fab [2]): 1.39
VKPVCKPVWMCVGF [Phage-3436]	1.76	0.122	–	–	–
VFPICKPSWMCVGM (cysteine pairing not given here; also: fused to pIII of bacteriophage, linker and pIII sequence not given here, Clonal phage of the Peptide-180 optimization library, tested as crude phage supernatant; not shown: fused to pIII of the bacteriophage) [Phage-2849]	–	–	–	–	Phage binding ELISA signal, Anti-PSMA Fab with PSMA antigen (006 PSMA Fab [5]): 0.174; Phage binding ELISA signal, Anti-PSMA Fab (006 PSMA Fab [6]): 2.46
LYKECVPQWMCSGF (also called Peptide-180 library clone) [Phage-3731]	–	–	–	–	Phage binding ELISA signal, Anti-PSMA Fab in presence of PSMA antigen (PSMA Fab [1]): 0.0798; Phage binding ELISA signal, Anti-PSMA Fab (PSMA Fab [2]): 1.4
VSHHCVPAWMCFGL (also called Peptide-180 library clone) [Phage-3737]	–	–	–	–	Phage binding ELISA signal, Anti-PSMA Fab in presence of PSMA antigen (PSMA Fab [1]): 0.0946; Phage binding ELISA signal, Anti-PSMA Fab (PSMA Fab [2]): 1.39
PAQMCIPQWMCNWL [Phage-3438]	1.75	0.0635	–	–	–
PSISCTPQWMCFGF [Phage-3521]	–	–	1.68	0.0639	–
EIPYCVPQWMCVAM [Phage-3434]	1.76	0.0788	–	–	–
QVKYCIPEWMCSSF (also called Peptide-180 library clone) [Phage-3735]	–	–	–	–	Phage binding ELISA signal, Anti-PSMA Fab in presence of PSMA antigen (PSMA Fab [1]): 0.0671; Phage binding ELISA signal, Anti-PSMA Fab (PSMA Fab [2]): 1.4
MPIYCVPEWMCQGL [Phage-3446]	1.75	0.0867	–	–	–
VMTVCKPAWMCTGF (cysteine pairing not given here; also: fused to pIII of bacteriophage, linker and pIII sequence not given here, Clonal phage of the Peptide-180 optimization library, tested as crude phage supernatant; not shown: fused to pIII of the bacteriophage) [Phage-2848]	–	–	–	–	Phage binding ELISA signal, Anti-PSMA Fab with PSMA antigen (006 PSMA Fab [5]): 0.205; Phage binding ELISA signal, Anti-PSMA Fab (006 PSMA Fab [6]): 2.47
LIALCKPPWMCEWF [Phage-3526]	–	–	1.67	0.213	–
VLHMCVPLWMCHGL [Phage-3435]	1.76	0.133	–	–	–
ELPVCRPSWMCGGL (also called Peptide-180 library clone) [Phage-3734]	–	–	–	–	Phage binding ELISA signal, Anti-PSMA Fab in presence of PSMA antigen (PSMA Fab [1]): 0.0603; Phage binding ELISA signal, Anti-PSMA Fab (PSMA Fab [2]): 1.4
YNMICQPQWMCSGF [Phage-3447]	1.75	0.0661	–	–	–
VVRHCVPTWMCTGF [Phage-3532]	–	–	1.66	0.102	–
VTPRCIPEWMCAGF (cysteine pairing not given here; also: fused to pIII of bacteriophage) [Phage-3442]	1.75	0.106	–	–	–
GYVMCEPRWMCEGL [Phage-3528]	–	–	1.67	0.0803	–
DMARCIPAWMCTGF [Phage-3523]	–	–	1.68	0.106	–

Binder	Phage binding ELISA signal, Anti-PSMA Fab (PSMA Fab [3])	Phage binding ELISA signal, Anti-PSMA Fab in presence of PSMA (PSMA Fab [4])	phage binding ELISA signal (006 PSMA Fab [7])	phage binding ELISA signal with PSMA antigen present (006 PSMA Fab [8])	other results
EERICKPQWMCSAF [Phage-3530]	–	–	1.66	0.0804	–
WMPRCVPEWMCAGF (cysteine pairing not given here; also: fused to pIII of bacteriophage, linker and pIII sequence not given here, Clonal phage of the Peptide-180 optimization library, tested as crude phage supernatant; not shown: fused to pIII of the bacteriophage) [Phage-2847]	–	–	–	–	Phage binding ELISA signal, Anti-PSMA Fab with PSMA antigen (006 PSMA Fab [5]): 0.334; Phage binding ELISA signal, Anti-PSMA Fab (006 PSMA Fab [6]): 2.48
DYSVCRPAWMCQGF (cysteine pairing not given here; also: fused to phage pIII, also called Peptide-180 library clone) [Phage-3729]	–	–	–	–	Phage binding ELISA signal, Anti-PSMA Fab in presence of PSMA antigen (PSMA Fab [1]): 0.0699; Phage binding ELISA signal, Anti-PSMA Fab (PSMA Fab [2]): 1.41
ALLSCVPPWMCLGL [Phage-3522]	–	–	1.68	0.0728	–
YGLRCEPAWMCQGF [Phage-3443]	1.75	0.0879	–	–	–
ETMICKPEWMCTGF [Phage-3441]	1.75	0.0818	–	–	–
VSPSCVPPWMCVGF [Phage-3531]	–	–	1.66	0.0791	–
WFRMCEPSWMCEGF [Phage-3527]	–	–	1.67	0.11	–
ELLHCKPMWMCIGL [Phage-3524]	–	–	1.67	0.0864	–
FTARCEPSWMCVGF (also called Peptide-180 library clone) [Phage-3730]	–	–	–	–	Phage binding ELISA signal, Anti-PSMA Fab in presence of PSMA antigen (PSMA Fab [1]): 0.0626; Phage binding ELISA signal, Anti-PSMA Fab (PSMA Fab [2]): 1.41
PGPSCVPSWMCVGF [Phage-3437]	1.76	0.074	–	–	–
YPPLCKPEWMCVGL [Phage-3525]	–	–	1.67	0.0714	–
GPKICVPMWMCDGF [Phage-3518]	–	–	1.68	0.116	–
SPIMCTPDWMCLGF [Phage-3439]	1.75	0.0708	–	–	–
VVPWCSPAWMCSGF [Phage-3529]	–	–	1.67	0.0752	–
SAIRCEPLWMCSGL [Phage-3519]	–	–	1.68	0.0578	–
PVRVCIPQWMCIGF [Phage-3440]	1.75	0.13	–	–	–
ITPMCIPAWMCEGV [Phage-3445]	1.75	0.0611	–	–	–
ADVRCVPDWMCWGM (also called Peptide-180 library clone) [Phage-3733]	–	–	–	–	Phage binding ELISA signal, Anti-PSMA Fab in presence of PSMA antigen (PSMA Fab [1]): 0.0602; Phage binding ELISA signal, Anti-PSMA Fab (PSMA Fab [2]): 1.4
TPHACVPDWMCYGF [Phage-3444]	1.75	0.0843	–	–	–
EVQYCVPAWMCEGF [Phage-3520]	–	–	1.68	0.117	–
